Assay results reported in patent publication US10918700B2, “Lipid-based nanoparticles and use of same in optimized insulin dosing regimens” (SDG, Inc., priority 2019, dated 2021).

How the values were obtained:
[1] = tested on: type 1 diabetes mellitus (T1DM); experiment: ISLE-1 26-week Phase 2b randomized double-blind trial: A1c; assay type: in vivo, human; conditions: ITT, 26 weeks
Method: ISLE-1 was a 26-week, Phase 2b, multicenter, randomized, double-blind, non-inferiority trial.
(§1) ISLE-1 was a 26-week, Phase 2b, multicenter, randomized, double-blind, trial in T1DM treated with multiple daily injections (MDI) of insulin.
Main exclusion criteria were total insulin dose ≥1.5 IU/kg/day or NPH insulin as basal.
Prandial dosing of HDV-lispro or control lispro was 15 minutes prior to the meal, and basal insulins were administered either as a single daily dose or a divided twice per day dosing, every 12 hours.
(§2) Informed of ˜10% dilution, participants continued their current insulin parameters. Hypoglycemia was recorded on Case Report Forms (CRFs) based on subject diaries and SMBG records, subjectively investigator-judged as “mild,” “moderate,” “severe,” or “life threatening.” Blinded continuous glucose monitoring (CGM) (Dexcom G4) was used for 5-7 days to assess glucose at baseline, weeks 13 and 26. A1c, lipids, and liver enzymes were measured approximately monthly. Liver fat content MRIs were performed in a subset.
The intent to treat (ITT) population included all randomized subjects receiving at least one dose of study treatment. Safety analyses included all randomized subjects. […] Mean A1c change was analyzed using ANCOVA within intent-to-treat (ITT) cohort at each visit. […]

[2] = tested on: type 1 diabetes mellitus (T1DM); experiment: ISLE-1: hypoglycemia (CRF-reported and blinded CGM)
Method: as §1, §2
The intent to treat (ITT) population included all randomized subjects receiving at least one dose of study treatment. Safety analyses included all randomized subjects. […] Mean A1c change was analyzed using ANCOVA within intent-to-treat (ITT) cohort at each visit. […] Poisson regression models adjusting for site as random effect compared “severe” hypoglycemia incidence rates within A1c groups, testing for baseline A1c by treatment group interaction. Event number/subject was truncated at 15, accounting for extreme outliers.

[3] = tested on: type 1 diabetes mellitus (T1DM); experiment: ISLE-1: lipids, liver enzymes, liver fat MRI, adverse events; assay type: in vivo, human; conditions: over study
Method: as §1, §2
The intent to treat (ITT) population included all randomized subjects receiving at least one dose of study treatment. Safety analyses included all randomized subjects. […] Mean A1c change was analyzed using ANCOVA within intent-to-treat (ITT) cohort at each visit. […] Direct likelihood models were used for treatment arm A1c comparisons, % time <54 mg/dL, bolus insulin, and basal insulin within the two A1c subgroups. Poisson regression models adjusting for site as random effect compared “severe” hypoglycemia incidence rates within A1c groups, testing for baseline A1c by treatment group interaction. Event number/subject was truncated at 15, accounting for extreme outliers.

[4] = tested on: type 1 diabetes mellitus (T1DM); experiment: Continuous glucose monitoring results, Good to Great Hypoglycemia study (Table 1); assay type: in vivo, human
Method: A1c, lipids, and liver enzymes were measured approximately monthly. Liver fat content MRIs were performed in a subset.
Safety analyses included all randomized subjects.
Table 1 summarizes continuous glucose monitoring results in the Good to Great Hypoglycemia study, in terms of increased HDV-related hypoglycemia events.

[5] = tested on: type 1 diabetes (T1D); experiment: Example 3, 6-month open label study: insulin dosing, A1C, mean daily glucose, weight; assay type: in vivo, human; conditions: 61 enrollees, mean baseline A1C 7.3
Source text: Subcutaneous (SC) insulin is non-physiologic, since pancreatic insulin goes first to the liver. The present study was designed to determine whether delivery of Hepatic Directed Vesicles (HDV) admixed with lispro/HUMALOG® (HDV-L) decreases hypoglycemia in well controlled patients on multiple daily injections (MDI) with type 1 diabetes (T1D) using unblinded Dexcom G6 continuous glucose monitoring (CGM).
This study was a 6-month (mo) open label study of prandial insulin (lispro, 3 mo, then HDV-L, 3 mo) with basal insulin degludec (TRESIBA®) and unblinded continuous glucose monitoring (CGM) in T1D with baseline A1C 6.5-8.5%. Insulin dosing, hypoglycemia, and daily glucose control were among the monitored parameters.
In this study the target fasting blood glucose was 80-100 mg/dL. At 3 mo subjects were randomized to −10% or −40% basal dose to encourage titration with HDV-L. Physicians titrated basal insulin weekly. A hypoglycemic event was defined as ≥15 min of CGM≤54 mg/dL.

insulin lispro
Mean change in A1c baseline to Week 26 [1]: −0.16% | CRF-reported incidence of "severe" hypoglycemia ([2]; baseline A1c<8.5%): 21 events/100 person-years | time <54 mg/dL during Week 26 (median) ([2]; baseline A1c<8.5%, CGM): 0.6% | CRF-reported incidence rate of "severe" hypoglycemia ([2]; baseline A1c≥8.5%): 97 events/100 person-years | percentage time <54 mg/dL during Week 26 (median) ([2]; baseline A1c≥8.5%, CGM): 2.6% | change in total cholesterol [3]: 7.3 mg/dL | % Time <54 mg/dL, median ([4]; Baseline): 2.1% | % Time <70 mg/dL, median ([4]; Baseline): 5.8% | Area above curve <54 mg/dL, median ([4]; Baseline): 0.1 | Area above curve <70 mg/dL, median ([4]; Baseline): 0.9 | % Time <54 mg/dL, median ([4]; Endpoint): 1.7% | % Time <70 mg/dL, median ([4]; Endpoint): 5.6% | Area above curve <54 mg/dL, median ([4]; Endpoint): 0.1 | Area above curve <70 mg/dL, median ([4]; Endpoint): 0.7 | A1C after 3 mo optimization [5]: 6.9%
